From US20140087995A1 (published 2014) come the findings set out here.

Numbered stars: 1 amine (or outer) side, 2 acyl side, 3 side chain; on linkers, the order of the positions; unused ones are H or OH. Bridge positions count the residues as written; N and C are the ends. Side chains are listed from the residue outwards. Ends that are not written are not given here. * marks the point of attachment. C20 diacid = O=C(O)CCCCCCCCCCCCCCCCCCC(=O)*; γGlu = O=C(O)[C@H](CCC(=O)[*:2])N[*:1]; AEEA = NCCOCCOCC(=O)O

For assay [1], the target named is T1, rat calcitonin receptor (rat, UniProt P32214 25-516).
T1 construct: whole, on cells; also called rCTR; rat calcitonin (a) receptor
T1 sequence (looked up): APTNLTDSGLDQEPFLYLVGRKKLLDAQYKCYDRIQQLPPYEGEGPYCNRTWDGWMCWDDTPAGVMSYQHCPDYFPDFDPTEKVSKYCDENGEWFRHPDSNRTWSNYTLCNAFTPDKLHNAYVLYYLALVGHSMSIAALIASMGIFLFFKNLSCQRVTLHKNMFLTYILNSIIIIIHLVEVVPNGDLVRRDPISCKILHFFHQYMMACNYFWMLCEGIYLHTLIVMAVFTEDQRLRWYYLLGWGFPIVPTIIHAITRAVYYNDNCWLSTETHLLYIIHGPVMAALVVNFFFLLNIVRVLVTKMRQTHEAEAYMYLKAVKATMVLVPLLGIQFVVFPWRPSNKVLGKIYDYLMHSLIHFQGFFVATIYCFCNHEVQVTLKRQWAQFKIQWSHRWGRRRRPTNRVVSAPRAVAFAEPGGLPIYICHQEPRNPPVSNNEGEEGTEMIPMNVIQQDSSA
Description: ratio of binding IC50s: rat calcitonin receptor over rat amylin receptor (reference).

Assay [2] addresses T2, human calcitonin receptor (human, UniProt P30988 25-474).
T2 construct: whole, on cells; also called hCTR; hCT
T2 sequence (looked up): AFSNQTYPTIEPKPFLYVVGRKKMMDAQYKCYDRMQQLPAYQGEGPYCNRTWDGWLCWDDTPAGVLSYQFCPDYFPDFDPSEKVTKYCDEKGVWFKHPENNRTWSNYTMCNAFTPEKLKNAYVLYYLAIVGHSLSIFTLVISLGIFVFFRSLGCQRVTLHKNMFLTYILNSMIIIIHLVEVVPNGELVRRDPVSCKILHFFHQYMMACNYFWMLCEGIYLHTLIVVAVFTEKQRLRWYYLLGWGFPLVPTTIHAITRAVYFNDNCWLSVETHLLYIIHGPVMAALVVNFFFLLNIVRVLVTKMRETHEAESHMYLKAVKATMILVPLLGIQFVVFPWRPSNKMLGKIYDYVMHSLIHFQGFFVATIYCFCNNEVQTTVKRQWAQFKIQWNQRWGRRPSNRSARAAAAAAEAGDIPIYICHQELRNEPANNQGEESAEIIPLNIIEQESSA
The assay can be described thus: ratio of binding IC50s: human calcitonin receptor over human amylin receptor (reference). In a few lines: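 IC₅₀ values were derived by one-site competition analysis of SPA counts. Cell membranes (35 ng/μL) with SPA beads were incubated with test compounds for 120 min at 25° C in Hepes buffer, pH 7.4, containing CaCl2, MgCl₂, OA and Tween20.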

The target in assay [3] is T1, rat calcitonin receptor. The assay can be described thus: SPA competition with 125I-calcitonin, membranes of BHK cells with rat calcitonin receptor (Assay VIII).
Assay [4] addresses T3, rat amylin receptor (rat calcitonin receptor + rat RAMP 3) (rat, UniProt P32214 25-516; Q9JJ73 23-147).
T3 construct: whole, on cells; also called rAmylin-R; rat amylin 3(a) receptor
T3 sequence (looked up) 1: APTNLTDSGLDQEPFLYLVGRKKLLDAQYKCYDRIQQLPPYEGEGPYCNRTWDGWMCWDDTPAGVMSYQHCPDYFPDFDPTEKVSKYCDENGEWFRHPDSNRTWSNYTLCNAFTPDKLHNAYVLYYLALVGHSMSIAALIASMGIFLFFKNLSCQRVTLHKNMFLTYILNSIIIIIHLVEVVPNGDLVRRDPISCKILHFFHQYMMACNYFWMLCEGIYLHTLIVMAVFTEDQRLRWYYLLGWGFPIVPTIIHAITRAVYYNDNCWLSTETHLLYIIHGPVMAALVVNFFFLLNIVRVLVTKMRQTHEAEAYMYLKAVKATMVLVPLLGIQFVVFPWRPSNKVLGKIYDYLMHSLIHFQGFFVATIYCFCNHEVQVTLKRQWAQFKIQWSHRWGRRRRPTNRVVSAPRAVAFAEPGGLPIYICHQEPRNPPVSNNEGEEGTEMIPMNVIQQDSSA
T3 sequence (looked up) 2: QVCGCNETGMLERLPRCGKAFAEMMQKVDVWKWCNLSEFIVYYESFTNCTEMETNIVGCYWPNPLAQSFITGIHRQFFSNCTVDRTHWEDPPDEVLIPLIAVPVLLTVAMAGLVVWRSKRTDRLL
The assay can be described thus: SPA competition with 125I-rat amylin, membranes of BHK cells with rat calcitonin receptor + rat RAMP3 (Assay VI).

B1: N^ε1-[2-[2-[2-[[(4S)-4-carboxy-4-(19-carboxynonadecanoylamino)butanoyl]amino]ethoxy]ethoxy]acetyl]-[His14,Arg17,Pro21,Pro27,His34]-h-amylin (peptide)
peptide: K([AEEA-γGlu-C20 diacid])CNTATCATQRLAHFLRHSSPNFGAIPSSTNVGHNTY-NH2
modifications: disulfide 2-7; N-terminus assumed
SMILES: CC[C@H](C)[C@H](NC(=O)[C@H](C)NC(=O)CNC(=O)[C@H](Cc1ccccc1)NC(=O)[C@H](CC(N)=O)NC(=O)[C@@H]1CCCN1C(=O)[C@H](CO)NC(=O)[C@H](CO)NC(=O)[C@H](Cc1c[nH]cn1)NC(=O)[C@H](CCCNC(=N)N)NC(=O)[C@H](CC(C)C)NC(=O)[C@H](Cc1ccccc1)NC(=O)[C@H](Cc1c[nH]cn1)NC(=O)[C@H](C)NC(=O)[C@H](CC(C)C)NC(=O)[C@H](CCCNC(=N)N)NC(=O)[C@H](CCC(N)=O)NC(=O)[C@@H](NC(=O)[C@H](C)NC(=O)[C@@H]1CSSC[C@H](NC(=O)[C@@H](N)CCCCNC(=O)COCCOCCNC(=O)CC[C@H](NC(=O)CCCCCCCCCCCCCCCCCCC(=O)O)C(=O)O)C(=O)N[C@@H](CC(N)=O)C(=O)N[C@@H]([C@@H](C)O)C(=O)N[C@@H](C)C(=O)N[C@@H]([C@@H](C)O)C(=O)N1)[C@@H](C)O)C(=O)N1CCC[C@H]1C(=O)N[C@@H](CO)C(=O)N[C@@H](CO)C(=O)N[C@H](C(=O)N[C@@H](CC(N)=O)C(=O)N[C@H](C(=O)NCC(=O)N[C@@H](Cc1c[nH]cn1)C(=O)N[C@@H](CC(N)=O)C(=O)N[C@H](C(=O)N[C@@H](Cc1ccc(O)cc1)C(N)=O)[C@@H](C)O)C(C)C)[C@@H](C)O
notes: synthetic analogue of human amylin; also called compound 80
With B1, the “Ratio rCT/rAmylin binding” value in assay [1] was determined as 36.2. In addition, the “Ratio hCT/hAmylin binding” value in assay [2] turned out to be 68.1. Also, the half-maximal inhibitory concentration (IC50) (in general, the concentration at which inhibition is half-maximal) in assay [3] was 60.4 nM; in assay [4] it was 1.67 nM.

B2: N^ε1-[2-[2-[2-[[(4S)-4-carboxy-4-(19-carboxynonadecanoylamino)butanoyl]amino]ethoxy]ethoxy]acetyl]-[His14,Arg17,Pro21,Pro27,Pro31]-h-amylin (peptide)
peptide: K([AEEA-γGlu-C20 diacid])CNTATCATQRLAHFLRHSSPNFGAIPSSTPVGSNTY-NH2
modifications: disulfide 2-7; N-terminus assumed
SMILES: CC[C@H](C)[C@H](NC(=O)[C@H](C)NC(=O)CNC(=O)[C@H](Cc1ccccc1)NC(=O)[C@H](CC(N)=O)NC(=O)[C@@H]1CCCN1C(=O)[C@H](CO)NC(=O)[C@H](CO)NC(=O)[C@H](Cc1c[nH]cn1)NC(=O)[C@H](CCCNC(=N)N)NC(=O)[C@H](CC(C)C)NC(=O)[C@H](Cc1ccccc1)NC(=O)[C@H](Cc1c[nH]cn1)NC(=O)[C@H](C)NC(=O)[C@H](CC(C)C)NC(=O)[C@H](CCCNC(=N)N)NC(=O)[C@H](CCC(N)=O)NC(=O)[C@@H](NC(=O)[C@H](C)NC(=O)[C@@H]1CSSC[C@H](NC(=O)[C@@H](N)CCCCNC(=O)COCCOCCNC(=O)CC[C@H](NC(=O)CCCCCCCCCCCCCCCCCCC(=O)O)C(=O)O)C(=O)N[C@@H](CC(N)=O)C(=O)N[C@@H]([C@@H](C)O)C(=O)N[C@@H](C)C(=O)N[C@@H]([C@@H](C)O)C(=O)N1)[C@@H](C)O)C(=O)N1CCC[C@H]1C(=O)N[C@@H](CO)C(=O)N[C@@H](CO)C(=O)N[C@H](C(=O)N1CCC[C@H]1C(=O)N[C@H](C(=O)NCC(=O)N[C@@H](CO)C(=O)N[C@@H](CC(N)=O)C(=O)N[C@H](C(=O)N[C@@H](Cc1ccc(O)cc1)C(N)=O)[C@@H](C)O)C(C)C)[C@@H](C)O
notes: synthetic analogue of human amylin; also called compound 61
Consider B2, for which the “Ratio rCT/rAmylin binding” value in assay [1] is 39.7. Moreover, in assay [2], the “Ratio hCT/hAmylin binding” value stood at 66.7. The values for the half-inhibitory concentration (IC50) in assay [3] and in assay [4] were 33.4 nM and 0.842 nM, respectively.
